{"source": "patent US20210269532A1", "key": {"[1]": {"target": "His-tagged human AXL extracellular domain (recombinant) (human) (UniProt P30530)", "sequence (P30530 26-451)": "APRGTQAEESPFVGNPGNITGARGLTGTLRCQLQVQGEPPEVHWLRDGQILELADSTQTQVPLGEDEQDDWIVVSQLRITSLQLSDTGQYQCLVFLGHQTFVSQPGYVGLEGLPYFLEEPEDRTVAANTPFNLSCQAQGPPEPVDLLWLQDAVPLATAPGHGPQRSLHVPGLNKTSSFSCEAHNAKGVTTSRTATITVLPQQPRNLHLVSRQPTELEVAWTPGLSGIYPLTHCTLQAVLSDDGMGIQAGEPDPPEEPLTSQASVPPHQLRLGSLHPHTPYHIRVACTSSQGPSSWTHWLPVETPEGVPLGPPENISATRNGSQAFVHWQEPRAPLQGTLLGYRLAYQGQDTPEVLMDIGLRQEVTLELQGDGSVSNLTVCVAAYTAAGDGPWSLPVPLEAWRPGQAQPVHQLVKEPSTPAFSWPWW", "assay": "SPR classical sandwich assay (IBIS MX96): 100 nM analyte over AXL-His ECD held by surface-captured 22883; grey cell = blocked"}, "[2]": {"target": "chimeric mouse AXL ECD with human Ig1 domain, His-tagged (human; mouse) (UniProt Q00993)", "sequence (Q00993 other isoform, or with tags, fused parts or gaps mutant limits assumed)": "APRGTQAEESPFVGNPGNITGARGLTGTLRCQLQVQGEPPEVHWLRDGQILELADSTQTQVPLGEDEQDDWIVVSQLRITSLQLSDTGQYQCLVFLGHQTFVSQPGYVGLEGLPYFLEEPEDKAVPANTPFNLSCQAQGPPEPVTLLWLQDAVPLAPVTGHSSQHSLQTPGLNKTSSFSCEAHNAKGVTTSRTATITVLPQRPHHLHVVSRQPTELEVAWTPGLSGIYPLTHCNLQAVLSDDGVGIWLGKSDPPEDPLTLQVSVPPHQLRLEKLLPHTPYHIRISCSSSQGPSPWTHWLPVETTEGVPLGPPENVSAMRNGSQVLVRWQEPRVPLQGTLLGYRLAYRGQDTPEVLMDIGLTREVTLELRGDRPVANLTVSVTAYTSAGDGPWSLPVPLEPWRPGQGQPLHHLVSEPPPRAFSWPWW", "assay": "BLI (Octet QK384), His-tagged protein captured on Anti-Penta-HIS sensors, antibody at saturating conditions; white cell"}, "[3]": {"target": "His-tagged human AXL extracellular domain (recombinant) (human) (UniProt P30530)", "assay": "SPR classical sandwich assay (IBIS MX96): 100 nM analyte over AXL-His ECD held by surface-captured YW327.6S2 IgG1-LALA analogue; white cell = sandwiching"}, "[4]": {"target": "His-tagged human AXL extracellular domain (recombinant) (human) (UniProt P30530)", "assay": "SPR classical sandwich assay (IBIS MX96): 100 nM analyte over AXL-His ECD held by surface-captured 10G5 analogue; grey cell = blocked (self)"}, "[5]": {"target": "His-tagged human AXL extracellular domain (recombinant) (human) (UniProt P30530)", "assay": "BLI (Octet QK384), His-tagged protein captured on Anti-Penta-HIS sensors, antibody at saturating conditions; row HuAXL_ECD, the reference of the normalization"}, "[6]": {"target": "His-tagged human AXL extracellular domain (recombinant) (human) (UniProt P30530)", "assay": "SPR classical sandwich assay (IBIS MX96): 100 nM analyte over AXL-His ECD held by the surface-captured Control antibody (f2); white cell = sandwiching"}, "[7]": {"target": "His-tagged human AXL extracellular domain (recombinant) (human) (UniProt P30530)", "assay": "SPR classical sandwich assay (IBIS MX96): 100 nM analyte over AXL-His ECD held by surface-captured 23203-1; white cell = sandwiching"}, "[8]": {"target": "His-tagged human AXL extracellular domain (recombinant) (human) (UniProt P30530)", "assay": "SPR classical sandwich assay (IBIS MX96): 100 nM analyte over AXL-His ECD held by surface-captured 22995; white cell = sandwiching"}}}
{"binder": "10G5 analogue (BerGenBio) (antibody, from another filing, V domains shown) VH: QVQLQQSGAELVRPGASVKLSCKASGYSFTDFYINWVRQRPGQGLEWIARIFPGGDNTYYNEKFKGKATLTAEESSSTAYIQLSSLTSEDSAVYFCARRGLYYAMDYWGQGISVTVSS VL: DVLMTQTPLSLPVSLGDQASISCRSSQSLVHSNGIPYLHWYLQKPGQSPKLLIYRVSNRFSGVPDRFSGSGSGTDFTLKISRVEAEDLGVYFCSQGTHVPPTFGGGTKLEIK", "values": [{"measurement": "normalized SPR sandwich response", "setting": "[1]", "result": -0.1}, {"measurement": "BLI response (nm) normalized to full-length human AXL-ECD", "setting": "[2]", "result": 0.9}, {"measurement": "normalized SPR sandwich response", "setting": "[3]", "result": 1.6}, {"measurement": "normalized SPR sandwich response", "setting": "[4]", "result": -0.2}, {"measurement": "BLI response (nm) normalized to full-length human AXL-ECD", "setting": "[5]", "result": 1}, {"measurement": "normalized SPR sandwich response", "setting": "[6]", "result": 1.2}, {"measurement": "normalized SPR sandwich response", "setting": "[7]", "result": 1.2}, {"measurement": "normalized SPR sandwich response", "setting": "[8]", "result": 1.3}]}
